Assay results reported in patent publication US20060242739A1, “Plant nucleotide-sugar pyrophosphatase/phosphodiesterase (nppase), method of obtaining same and use of same in the production of assay devices and in the production of transgenic plants” (Universidad Publica De Navarra, priority 2002, published 2006).

B1: Proteinase K: protease (Boehringer) (protein, UniProt P06873 106-384, looked up)
Proteinase K: AAQTNAPWGLARISSTSPGTSTYYYDESAGQGSCVYVIDTGIEASHPEFEGRAQMVKTYYYSSRDGNGHGTHCAGTVGSRTYGVAKKTQLFGVKVLDDNGSGQYSTIIAGMDFVASDKNNRNCPKGVVASLSLGGGYSSSVNSAAARLQSSGVMVAVAAGNNNADARNYSPASEPSVCTVGASDRYDRRSSFSNYGSVLDIFGPGTSILSTWIGGSTRSISGTSMATPHVAGLAAYLMTLGKTTAASACRYIADTANKGDLSNIPFGTVNLLAYNNYQA
B2: NPPase: plant nucleotide pyrophosphatase/phosphodiesterase, soluble 70-kDa isoform purified from barley leaves (protein)
chain: MVSRKRGGGGGVAMAVAMLLAAASASRPSSSLEGFQPLSKIAVHKATVDLHGSAFVSATPALLGDQGEDTEWVTVKYGWANPSADDWIAVFSPADFISGSCPNPSRYPDEPLLCTAPIKYQFANYSANYVYWGKGSIRFQLINQRYDFSFALFTGGLENPKLVAVSEAISFKNPKAPVYPRLAQGKSYDEMTVTWTSGYDISEAYPFVEWGMVVAGAAAPTRTAAGTLTFNRGSMCGDPDRTVGWRDPGFIHTAFLRDLWPNKEYYYKIGHELSDGSIVWGKQYTFRAPPFPGQNSLQRIIVFGDMGKAERDGSNEFANYQPGSLNTTDRLVEDLDNYDIVFHIGDLPYANGYISQWDQFTAQVAPITAKKPYMIASGNHERDWPNTGGFFDVKDSGGECGVPAETMYYYPAENRANFWYKVDYGMFRFCIADSEHDWREGTDQYKFIEQCLSTVDRKHQPWLIFAAHRVLGYSSNWWYADQQSFEEPEGRESLQRLWQRHRVDVAFFGHVHNYERTCPMYQSQCVSGERRRYSGTMNGTIFVVAGGGGSHLSDYTSAIPKWSVFRDRDFGFVKLTAFNHSSLLFEYKKSSDGKVYDSFTVERDYRDVLSCVHDSCLPTTLAS

Assays:
[1] = target: T1, NPPase from barley leaves (Hordeum vulgare, UniProt Q687E1); test: Enzymatic test of soluble NPPase from barley leaves: kinetic parameters, substrate specificity, effectors; conditions: qualitative
T1 sequence (Q687E1 19-368): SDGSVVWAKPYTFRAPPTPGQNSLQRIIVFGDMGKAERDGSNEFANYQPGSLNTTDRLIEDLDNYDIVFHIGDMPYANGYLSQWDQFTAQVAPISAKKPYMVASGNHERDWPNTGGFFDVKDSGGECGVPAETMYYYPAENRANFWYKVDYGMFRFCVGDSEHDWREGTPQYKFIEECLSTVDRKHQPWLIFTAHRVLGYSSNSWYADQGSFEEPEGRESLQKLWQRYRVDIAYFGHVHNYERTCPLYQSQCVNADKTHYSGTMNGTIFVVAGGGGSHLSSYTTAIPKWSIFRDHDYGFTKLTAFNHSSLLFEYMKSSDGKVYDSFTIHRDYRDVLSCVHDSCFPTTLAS

[2] = slightly basic pH

Row | Molecule | resistance of NPPase to ionic detergents and proteases [1] | pH sensitivity [2]
1 | B1 | resistant | –
2 | B2 | – | sensitive
